Reference: patent US20040260069A1 (Merck KGaA, published 2004)

How the values were obtained:
[1] = biological target: T1, TNF alpha (PeproTech EC Ltd, London, UK) (human, UniProt P01375 77-233); assay: plate ELISA, TNF alpha coated at 2.5 µg/ml, anti-human IgG-HRP detection
T1 construct: also called tumor necrosis factor alpha

biotinylated TNF alpha = biological target: T2, biotinylated TNF alpha (human, UniProt P01375 77-233, biotinylated using EZ link Sulfo-NHS-biotin (sites not given)); assay: competition ELISA, antibody against plate-bound TNF alpha RII-Fc for biotin-TNF alpha
T2 construct: also called biotin-TNF alpha
T2 sequence (P01375 77-233 limits assumed): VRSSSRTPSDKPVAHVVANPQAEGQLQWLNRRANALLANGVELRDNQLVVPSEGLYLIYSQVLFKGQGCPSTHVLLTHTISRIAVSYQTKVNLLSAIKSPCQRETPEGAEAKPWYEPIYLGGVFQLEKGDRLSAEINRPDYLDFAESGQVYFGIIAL

T1 sequence (P01375 77-233 limits assumed): as above

B1: modified anti-TNF alpha antibody Vh5/Vk12 (antibody, human IgG1, V domains shown)
VH: EVKLEESGGGLVQPGGSLRLSCAASGFTFSNHWMNWVRQSPEKGLEWVAETRSKSTNSATHYAESVKGRFTISRDDSKNSLYLQMNSLKTEDTGVYYCSRNYYGSTYDYWGQGTTVTVSS
VL: DIQLTQSPDTSSASPGERASFSCRASQFVGSSIHWYQHTTNGSPRLLIKYASESMSGVPSRFSGSGSGTDFTLTINSLEAEDAATYYCQQSHSWPFTFGSGTNLEVKR
notes: Expressed in NS/0 cells as whole antibody with a human IgG1 constant region (vector pSVgpt) and a human kappa constant region (vector pSVhyg); also called modified antibody of the invention; preferred antibody of the present invention
[1]
  binding result: binds
Biotinylated TNF alpha
  binding result: binds
